In patent publication US7553821B2, “Methods for selectively modulating survivin apoptosis pathways” (Yale University, priority 2000, dated 2009):

Target: T1, caspase-8 (Homo sapiens, UniProt Q14790)
T1 construct: endogenous in cells; host or cells: HeLa
Assay: Co-immunoprecipitation of survivin and caspase-8 from HeLa cells
Assay type: binding
Conditions: transfected HeLa cells
Protocol: The experimental conditions are the same as in A, except that HA-survivin and HA-survivin(T34A) immunoprecipitates were separately immunoblotted with antibodies to caspase-8 or HA. S, supernatant of HA-survivin immunoprecipitate. Arrow, position of ˜55 kDa proform caspase-8.
Transfection experiments. For transient transfection, HeLa cells in C-6 tissue culture plates (Costar, Cambridge, Mass.) at ˜60-70% confluency, were incubated in 1 ml of serum-free OptiMEM medium (Life Technologies, Gaithersburg, Md.) for 20 min, and transfected with 2.5 μg of the various plasmid cDNAs plus 9 μl Lipofectamine (Life Technologies). After a 5 h incubation at 37° C., the mixture was aspirated and substituted with complete growth medium for 48-72 h. To generate stable YUSAC-2 transfectants, a survivin(T34A) cDNA was inserted into the HindIII-SpeI sites of the pTet-splice vector (Dr. D. Schatz, Yale University School of Medicine), downstream of the regulatory sequences of the Tet-resistance operon (TetO). YUSAC-2 cells were transfected with 0.8 μg pTet-T34A, 0.8 μg of the transactivation/selection plasmid ptTA-Neo and 5 μl Lipofectamine in 1 ml of OptiMem. […] Gated GFP-expressing cells were analyzed for DNA content by flow cytometry on a FACSort (Becton Dickinson, San Jose, Calif.) using a Cell Quest software. […]

T1 sequence (Q14790 whole entry): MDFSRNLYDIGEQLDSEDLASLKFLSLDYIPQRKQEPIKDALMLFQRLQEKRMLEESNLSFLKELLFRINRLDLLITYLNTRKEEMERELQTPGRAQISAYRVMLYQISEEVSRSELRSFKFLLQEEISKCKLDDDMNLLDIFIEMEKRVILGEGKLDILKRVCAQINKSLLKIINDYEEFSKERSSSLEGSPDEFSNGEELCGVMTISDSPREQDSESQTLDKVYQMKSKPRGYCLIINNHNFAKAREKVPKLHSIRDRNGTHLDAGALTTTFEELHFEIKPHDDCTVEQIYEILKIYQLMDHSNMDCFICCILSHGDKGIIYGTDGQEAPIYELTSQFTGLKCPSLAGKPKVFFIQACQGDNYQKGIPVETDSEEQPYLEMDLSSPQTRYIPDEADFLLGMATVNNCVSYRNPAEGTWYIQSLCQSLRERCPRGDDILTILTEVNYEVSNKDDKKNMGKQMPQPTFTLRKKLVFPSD

survivin(T34A): dominant-negative, non-phosphorylatable survivin mutant with Thr34→Ala substitution, expressed from transfected cDNA (also HA- or GFP-tagged)
caspase-8 in immunoprecipitates by Western blotting: did not contain another upstream initiator caspase, caspase-8
